In patent US20240262917A1 (Dana-Farber, published 2024):

Legend:
ALK-hFc = molecular target: T1, ALK-hFc; assay: ELISA of hybridoma supernatant on a plate coated with ALK-hFc, detection with anti-mouse kappa light chain antibody; control row Co 0.067
T1 construct: also called ALK ECD-human Fc fusion protein; ALK-ECD-hFc; not shown: Human IgG2 Fc of the vector pFUse-hIgG2-FC2, and any vector-derived junction residues
Description: (§1) HAT-selected fused cells were distributed in 96 well plates and the hybridoma supernatants were subjected to several rounds of screening. Initial screening was performed using ELISA against human Fc to test antigen binding with the ALK ECD-human Fc fusion protein. […] These were rescreened by FACS against Ba/F3 and neuroblastoma (NB) cells expressing ALK. […] (A) Binding of hybridoma supernatants using an antigen-binding capture assay. The plate was coated with goat-anti-mouse IgG Fc, incubated with hybridoma supernatants, followed by ALK-HRP and visualized using an HRP substrate. (B) Binding of selected hybridoma supernatants to a human Fc antibody using ELISA screening. Plates were coated with the ALK ECD-human Fc fusion protein (ALK-hFc) together with an irrelevant hFc protein and visualized using an anti-mouse kappa light chain antibody.

Irrel-hFc = molecular target: T2, Irrel-hFc; assay: ELISA of hybridoma supernatant on a plate coated with an irrelevant hFc protein, detection with anti-mouse kappa light chain antibody; control row Co 0.062
T2 construct: also called irrelevant hFc protein
Description: as §1

[1] = molecular target: T3, Full-length human anaplastic lymphoma kinase (ALK) receptor, wild type (human, UniProt Q9UM73 19-1620); assay: western blot of NB cell lysates
T3 construct: Tested in cell lysates (western blot, IP) and on fixed cells (IF, ICC); HA- or FLAG-tagged in the co-IP dimerisation assay and FLAG-tagged and purified in the MMP-9 cleavage assay; also called WT ALK; ALK WT
T3 sequence (Q9UM73 19-1620 limits assumed): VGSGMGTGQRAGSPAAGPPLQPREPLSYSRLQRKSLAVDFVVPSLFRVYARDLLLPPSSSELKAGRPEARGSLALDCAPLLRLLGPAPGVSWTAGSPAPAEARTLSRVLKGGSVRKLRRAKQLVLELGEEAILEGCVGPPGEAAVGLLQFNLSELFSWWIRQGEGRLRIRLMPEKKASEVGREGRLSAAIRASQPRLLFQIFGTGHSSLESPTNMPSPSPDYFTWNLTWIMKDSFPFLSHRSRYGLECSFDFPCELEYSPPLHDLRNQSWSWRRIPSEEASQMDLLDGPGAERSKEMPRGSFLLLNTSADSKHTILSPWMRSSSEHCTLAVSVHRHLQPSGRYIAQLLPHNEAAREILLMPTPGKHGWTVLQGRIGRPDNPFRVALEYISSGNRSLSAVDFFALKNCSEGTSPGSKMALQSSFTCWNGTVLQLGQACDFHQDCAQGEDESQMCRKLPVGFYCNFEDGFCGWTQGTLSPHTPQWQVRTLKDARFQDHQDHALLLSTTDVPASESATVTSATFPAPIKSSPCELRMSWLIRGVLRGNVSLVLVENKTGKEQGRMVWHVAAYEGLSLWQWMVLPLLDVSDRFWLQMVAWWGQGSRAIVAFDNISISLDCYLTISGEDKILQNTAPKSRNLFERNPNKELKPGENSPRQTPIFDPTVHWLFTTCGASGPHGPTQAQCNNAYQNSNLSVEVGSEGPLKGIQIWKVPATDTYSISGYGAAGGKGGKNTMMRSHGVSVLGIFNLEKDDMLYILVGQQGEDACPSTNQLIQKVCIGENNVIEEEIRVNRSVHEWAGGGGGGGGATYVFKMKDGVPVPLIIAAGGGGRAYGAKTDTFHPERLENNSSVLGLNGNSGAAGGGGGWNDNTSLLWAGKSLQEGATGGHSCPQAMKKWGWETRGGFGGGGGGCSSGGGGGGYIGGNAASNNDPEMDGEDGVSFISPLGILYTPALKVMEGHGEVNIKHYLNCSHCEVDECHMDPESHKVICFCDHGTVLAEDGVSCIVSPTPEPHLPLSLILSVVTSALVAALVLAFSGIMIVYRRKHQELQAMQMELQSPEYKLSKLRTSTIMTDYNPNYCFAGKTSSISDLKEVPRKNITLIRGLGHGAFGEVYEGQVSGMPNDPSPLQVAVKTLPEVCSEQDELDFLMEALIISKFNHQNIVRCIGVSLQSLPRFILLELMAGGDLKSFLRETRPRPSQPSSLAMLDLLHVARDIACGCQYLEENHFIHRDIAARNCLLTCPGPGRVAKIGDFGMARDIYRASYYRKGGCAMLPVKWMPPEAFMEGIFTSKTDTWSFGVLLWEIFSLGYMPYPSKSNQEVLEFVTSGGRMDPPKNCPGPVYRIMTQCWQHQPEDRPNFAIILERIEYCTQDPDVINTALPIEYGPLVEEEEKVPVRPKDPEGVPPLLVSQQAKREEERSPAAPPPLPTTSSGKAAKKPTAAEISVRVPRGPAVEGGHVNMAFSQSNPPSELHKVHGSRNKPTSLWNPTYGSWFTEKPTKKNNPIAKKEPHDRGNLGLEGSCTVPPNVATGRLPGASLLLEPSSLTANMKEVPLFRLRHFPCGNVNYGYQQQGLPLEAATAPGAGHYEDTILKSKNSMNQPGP

Human ALK F1174L = molecular target: T4, Human ALK F1174L (human, UniProt Q9UM73 19-1620); assay: immunofluorescence on SHEP cells expressing ALK F1174L, 1:100 dilution
T4 construct: Expressed in SHEP neuroblastoma cells (IF) and in tumours of the ALK F1174L/MYCN transgenic mouse (IHC)
T4 sequence (Q9UM73 19-1620 F1174L limits assumed): as the sequence (Q9UM73 19-1620 limits assumed) above, with F1156L counted along it

[2] = molecular target: T5, Shed ALK extracellular domain fragment (ALK 1-654) (human, UniProt Q9UM73 19-654); assay: sandwich ELISA, 7F7 capture, 8G7 detection, ALK-ECD protein as the varied antigen
T5 construct: Fragment released into conditioned media or serum by cleavage at Asn654-Leu655; also called SF; secreted extracellular fragment
T5 sequence (Q9UM73 19-654): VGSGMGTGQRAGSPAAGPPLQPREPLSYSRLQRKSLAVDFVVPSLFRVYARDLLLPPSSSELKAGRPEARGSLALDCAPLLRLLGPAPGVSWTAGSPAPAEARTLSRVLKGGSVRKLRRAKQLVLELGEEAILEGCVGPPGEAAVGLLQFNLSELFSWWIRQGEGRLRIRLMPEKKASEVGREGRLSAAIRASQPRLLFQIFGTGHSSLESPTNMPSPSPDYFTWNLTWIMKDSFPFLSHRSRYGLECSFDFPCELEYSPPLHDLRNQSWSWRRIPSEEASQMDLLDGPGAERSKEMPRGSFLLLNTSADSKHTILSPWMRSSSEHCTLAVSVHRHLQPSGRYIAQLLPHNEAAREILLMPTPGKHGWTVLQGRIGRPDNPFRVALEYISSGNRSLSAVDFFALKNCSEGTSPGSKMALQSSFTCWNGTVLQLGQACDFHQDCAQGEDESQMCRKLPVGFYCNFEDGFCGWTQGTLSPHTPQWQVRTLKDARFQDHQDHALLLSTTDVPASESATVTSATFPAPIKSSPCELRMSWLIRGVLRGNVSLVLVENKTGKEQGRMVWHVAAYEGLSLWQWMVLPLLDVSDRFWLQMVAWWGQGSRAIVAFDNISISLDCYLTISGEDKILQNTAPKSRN
Source text: (B) ELISA of the shed ALK ECD protein in sera from patients with neuroblastoma.

ALK-LF655FY = molecular target: T6, ALK-LF655FY; assay: immunofluorescence on NIH3T3 cells expressing the construct
T6 construct: also called NIH3T3 ALK LF655FY; MSCV-LF655FY
T6 sequence (receptor chain, as listed by the source): as the sequence (Q9UM73 19-1620 limits assumed) above, with L637F, F638Y counted along it
Description: A 1:100 antibody dilution was used.
Cells (0.5×10⁶ per well) were seeded into six-well plates and grown on glass coverslips for 24 hr. before fixation in 4% paraformaldehyde in PBS for 15 min at room temperature (RT), washed with PBS, permeabilized in 0.1% Triton X-100, and blocked with PBS containing 0.05% Tween-20 and 5% BSA for 1 hr. to block nonspecific binding. […] Images were collected on a Zeiss AXIO Imager Z1 fluorescence microscope. […] After 24 hours, cells were washed once in PBS, fixed in 4% paraformaldehyde in PBS, washed, permeabilized in 0.1% Triton X-100, and blocked in PBS containing 10% horse serum. […] The next day, cells were washed, incubated in goat anti-rabbit IgG secondary antibody (1:1000) for 1 hr. washed, and incubated in Streptavidin-TexasRed (1:1000) for 1 hr. Cover slips were mounted onto slides using mounting medium containing DAPI. Images were collected on a Zeiss AXIO Imager Z1 fluorescence microscope.

[3] = molecular target: T7, 140 kDa truncated membrane-bound C-terminal ALK fragment (human, UniProt Q9UM73 655-1620); assay: western blot of NB cell lysates
T7 construct: also called CTF; 140 kDa fragment
T7 sequence (Q9UM73 655-1620): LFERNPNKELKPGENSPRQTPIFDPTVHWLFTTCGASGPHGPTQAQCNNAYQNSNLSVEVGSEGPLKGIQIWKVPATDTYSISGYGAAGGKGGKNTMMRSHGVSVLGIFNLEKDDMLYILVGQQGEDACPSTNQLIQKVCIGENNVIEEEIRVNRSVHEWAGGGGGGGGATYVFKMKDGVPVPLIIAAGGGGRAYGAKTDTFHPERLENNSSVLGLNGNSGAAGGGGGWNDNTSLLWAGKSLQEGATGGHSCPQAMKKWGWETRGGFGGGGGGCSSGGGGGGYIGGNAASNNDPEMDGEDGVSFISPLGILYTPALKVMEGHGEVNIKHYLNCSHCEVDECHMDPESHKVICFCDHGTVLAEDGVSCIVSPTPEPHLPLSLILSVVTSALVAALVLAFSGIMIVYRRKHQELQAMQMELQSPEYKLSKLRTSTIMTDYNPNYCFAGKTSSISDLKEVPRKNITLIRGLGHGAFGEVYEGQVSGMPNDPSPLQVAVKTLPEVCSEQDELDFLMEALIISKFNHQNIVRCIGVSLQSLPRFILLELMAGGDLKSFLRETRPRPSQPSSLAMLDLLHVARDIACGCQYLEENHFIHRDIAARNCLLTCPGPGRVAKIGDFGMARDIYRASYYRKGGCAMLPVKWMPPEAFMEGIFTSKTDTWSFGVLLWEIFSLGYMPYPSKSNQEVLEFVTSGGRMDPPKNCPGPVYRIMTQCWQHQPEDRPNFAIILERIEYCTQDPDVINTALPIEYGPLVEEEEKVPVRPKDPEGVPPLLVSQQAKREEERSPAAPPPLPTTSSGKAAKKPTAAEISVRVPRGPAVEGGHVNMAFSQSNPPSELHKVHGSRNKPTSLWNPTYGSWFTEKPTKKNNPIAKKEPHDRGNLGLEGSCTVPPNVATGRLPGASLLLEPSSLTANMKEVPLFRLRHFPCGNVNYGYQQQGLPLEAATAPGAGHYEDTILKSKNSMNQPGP

T1 sequence (chain, as listed by the source limits assumed): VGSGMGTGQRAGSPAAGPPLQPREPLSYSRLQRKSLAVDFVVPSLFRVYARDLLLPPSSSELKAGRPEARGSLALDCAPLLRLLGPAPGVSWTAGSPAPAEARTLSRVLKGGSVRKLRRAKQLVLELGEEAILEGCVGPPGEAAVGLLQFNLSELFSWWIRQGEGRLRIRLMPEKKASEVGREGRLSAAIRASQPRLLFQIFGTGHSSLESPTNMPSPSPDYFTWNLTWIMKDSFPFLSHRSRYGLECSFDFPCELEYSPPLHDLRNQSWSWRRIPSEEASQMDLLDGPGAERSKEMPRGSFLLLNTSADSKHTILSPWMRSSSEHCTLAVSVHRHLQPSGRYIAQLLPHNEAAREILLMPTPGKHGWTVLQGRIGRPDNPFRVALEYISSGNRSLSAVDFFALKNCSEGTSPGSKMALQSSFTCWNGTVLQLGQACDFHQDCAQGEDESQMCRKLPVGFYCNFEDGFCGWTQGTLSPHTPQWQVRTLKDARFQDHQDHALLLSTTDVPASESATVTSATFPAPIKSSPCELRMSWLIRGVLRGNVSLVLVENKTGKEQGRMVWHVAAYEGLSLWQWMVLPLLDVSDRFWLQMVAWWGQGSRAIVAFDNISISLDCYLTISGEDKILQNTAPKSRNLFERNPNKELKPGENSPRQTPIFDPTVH

B1: Monoclonal anti-ALK antibody 7F7 (antibody, IgG1, V domains shown)
VH: QVQLQQSGAELVRPGASVTLSCKASGYTFTDYEIHWMKQTPVHGLEWIGTIDPETGGTAYNQKFKGKAILTADKSSSTAYMELRSLTSEDSAVYYCTRCYYGSSWYFDVWGTGTTVTVSS
VL: DIQMTQTTSSLSASLGDRVTISCSASQGISNYLNWYQQKPDGTVKLLIYYTSSLHSGVPSRFSGSGSGTDYSLTISNLELEDIATYYCQQYSKVPRTFGGGTKLEIKR
notes: also called Ab 7F7
- ELISA reading (name not given) (ALK-hFc): 0.872
- ELISA reading (name not given) (Irrel-hFc): 0.063
- binding result [1]: binds
- binding result (Human ALK F1174L): binds
- binding result [2]: binds

B2: Monoclonal anti-ALK antibody 5H3 (antibody, IgG1, V domains shown)
VH: QVQLQQSGAELVRPGASVTLSCKASGYTFTDYEMHWVKQTPVHGLEWIGAIDPETGGSAYNQKFKAKAILTADRSSSTAYMELRSLTSEDSAVYYCTRTRYYGSSPAMDYWGQGTSVTVSS
VL: DIQMTQTTSSLSASLGDRVTISCSASQGIGNYLNWYQQKPDGTVKLLIYYTSSLHSGVPSRFSGSGSGTDYSLTISNLEPEDIATYYCQQYSKLPYTFGGGTKLEIKR
notes: The variable part as printed looks identical to that of 8G7; also called Ab 5H3
- ELISA reading (name not given) (ALK-hFc): 1.01
- ELISA reading (name not given) (Irrel-hFc): 0.064

B3: Mouse monoclonal anti-ALK 8G7 (antibody, IgG1, V domains shown)
VH: QVQLQQSGAELVRPGASVTLSCKASGYTFTDYEMHWVKQTPVHGLEWIGAIDPETGGSAYNQKFKAKAILTADRSSSTAYMELRSLTSEDSAVYYCTRTRYYGSSPAMDYWGQGTSVTVSS
VL: DIQMTQTTSSLSASLGDRVTISCSASQGIGNYLNWYQQKPDGTVKLLIYYTSSLHSGVPSRFSGSGSGTDYSLTISNLEPEDIATYYCQQYSKLPYTFGGGTKLEIK
notes: constant regions are not; also called Ab 8G7; 8G7 N-terminal anti-ALK antibody
- ELISA reading (name not given) (ALK-hFc): 0.56
- ELISA reading (name not given) (Irrel-hFc): 0.064
- binding result (ALK-LF655FY): binds
- binding result [3]: no binding
